According to publication PMC3912200, “Structural and Functional Characterization of Cargo-Binding Sites on the μ4-Subunit of Adaptor Protein Complex 4” (PLoS ONE, 2014):
Changes are numbered by the printed parent chain. Names may count otherwise.

B1: S254K: μ4 mutant, μ4-binding site, Y2H construct (protein)
chain: MISQFFILSSKGDPLIYKDFRGDSGGRDVAELFYRKLTGLPGDESPVVMHHHGRHFIHIRHSGLYLVVTTSENVSPFSLLELLSRLATLLGDYCGSLGEGTISRNVALVYELLDEVLDYGYVQTTSTEMLRNFIQTEAVVSKPFSLFDLSSVGLFGAETQQSKVAPSSAASRPVLSSRSDQSQKNEVFLDVVERLSVLIASNGSLLKVDVQGEIRLKSFLPSGSEMRIGLTEEFCVGKSELRGYGPGIRVDEVKFHSSVNLDEFESHRILRLQPPQGELTVMRYQLSDDLPSPLPFRLFPSVQWDRGSGRLQVYLKLRCDLLSKSQALNVRLHLPLPRGVVSLSQELSSPEQKAELAEGALRWDLPRVQGGSQLSGLFQMDVPGPPGPPSHGLSTSASPLGLGPASLSFELPRHTCSGLQVRFLRLAFRPCGNANPHKWVRHLSHSDAYVIRI
modifications: left off: Gal4 activation domain, end not stated, kept
B2: D190S: μ4 mutant, μ2-binding site, Y2H construct (protein)
chain: B1 chain with D190S, K254S
modifications: left off: Gal4 activation domain, end not stated, kept
B3: T280R: μ4 mutant, μ4-binding site, Y2H construct (protein)
chain: B1 chain with K254S, T280R
modifications: left off: Gal4 activation domain, end not stated, kept
B4: S257Q: μ4 mutant, μ4-binding site, Y2H construct (protein)
chain: B1 chain with K254S, S257Q
modifications: left off: Gal4 activation domain, end not stated, kept
B5: F188A: μ4 mutant, μ2-binding site, Y2H construct (protein)
chain: B1 chain with F188A, K254S
modifications: left off: Gal4 activation domain, end not stated, kept
B6: W439S: μ4 mutant, μ2-binding site, Y2H construct (protein)
chain: B1 chain with K254S, W439S
modifications: left off: Gal4 activation domain, end not stated, kept
B7: µ4-HA: HA-epitope-tagged full-length wild-type μ4, overexpressed (protein)
chain: B1 chain with K254S
modifications: left off: HA, end not stated, kept
B8: F264A: μ4 mutant, μ4-binding site, Y2H construct (protein)
chain: B1 chain with K254S, F264A
modifications: left off: Gal4 activation domain, end not stated, kept
B9: E265R: μ4 mutant, μ4-binding site, Y2H construct (protein)
chain: B1 chain with K254S, E265R
modifications: left off: Gal4 activation domain, end not stated, kept
B10: L261K: μ4 mutant, μ4-binding site, Y2H construct (protein)
chain: B1 chain with K254S, L261K
modifications: left off: Gal4 activation domain, end not stated, kept
B11: K217A: μ4 mutant, μ2-binding site, Y2H construct (protein)
chain: B1 chain with K217A, K254S
modifications: left off: Gal4 activation domain, end not stated, kept
B12: T280A: μ4 mutant, μ4-binding site, Y2H construct (protein)
chain: B1 chain with K254S, T280A
modifications: left off: Gal4 activation domain, end not stated, kept
B13: R441A: μ4 mutant, μ2-binding site, Y2H construct (protein)
chain: B1 chain with K254S, R441A
modifications: left off: Gal4 activation domain, end not stated, kept

Experiments:
cytosolic tail of APP = test: Yeast two-hybrid (Y2H) analysis of μ4 with the APP tail; assay type: binding; settings: growth on -His plates, 30°C; for effect of mutation on binding to the APP YKFFE signal (Y2H): mutations at μ4-binding site; for effect of mutation on interaction of the APP tail with μ4 (Y2H): mutations at μ2-binding site
Description: The cloning of the tail of APP (residues 649–695), full-length human μ4, and all the other yeast two-hybrid (Y2H) constructs, and the cloning of the C-terminal domain of μ4 for expression in E. coli was described previously. To generate a construct for mammalian expression, full-length human μ4 was obtained by PCR amplification and cloned into the EcoRI and SalI sites of pEGFP-N1 (BD BiosciencesClontech, Mountain View, CA) including a stop-codon before the GFP coding sequence. The cloning of APP-GFP carrying the double mutation F615P/D664A was described previously. Single amino acid substitutions were introduced using the QuikChange mutagenesis kit (Stratagene, La Jolla, CA). Y2H assays were performed as previously described. A set of pCI-neo (Promega) constructs encoding hemagglutinin (HA)-epitope tagged wild-type or mutants of human μ4 was a generous gift of J. Bonifacino and R. Mattera (Cell Biology and Metabolism Program, NICHD, NIH). The nucleotide sequences of all recombinant constructs were confirmed by dideoxy sequencing.
Figure 1 Yeast two-hybrid analysis of the interaction of μ4 with the cytosolic tail of APP. (A) Superposition of the surface and ribbon representations of human wild-type μ4 C-terminal domain (pdb entry 3L81). The insets show an enlargement of the μ4-binding site and the putative μ2-binding site with residues chosen for the yeast two-hybrid (Y2H) analysis. The APP peptide (TYKFFEQ; stick model) bound to the μ4-binding site is in yellow, and the EGFR peptide (FYRALM; stick model; pdb entry 1BW8) superposed to the putative μ2-binding site is in magenta. (B) Sequence alignment of the C-terminal domain of the μ subunits of known crystal structure depicting critical residues at the corresponding μ2- and μ4-binding sites. Disordered loops are in yellow letters, and arrows and cylinders represent β-strands and α-helices, respectively. M.m., Mus musculus; R.n., Rattus norvegicus; H.s., Homo sapiens. (C) and (D) Yeast were co-transformed with plasmids encoding Gal4bd fused to the cytosolic tail of the amyloid precursor protein (APP) indicated on the left, and Gal4ad fused to wild-type or mutant μ4 constructs indicated on top of each panel. (C) Y2H analysis of μ4 with mutations on the YKFFE binding site (μ4-binding site). (D) Y2H analysis of μ4 with mutations on a putative YXXØ binding site (μ2-binding site). Mouse p53 fused to Gal4bd and SV40 large T antigen (T Ag) fused to Gal4ad were used as controls. Co-transformed cells were spotted onto His-deficient (-His) or His-containing (+His) plates and incubated at 30°C. Growth is indicative of interactions. Some mutations on either of the two sites affect the interaction of μ4 with the cytosolic tail of APP.

APP-GFP = test: Distribution of APP-GFP in MDA-MB-231 cells; assay type: cell-based, human; settings: HA-epitope-tagged constructs, 24 h after transfection; EEA1/TGN46 immunofluorescence
Procedure: H4 human neuroglioma or MDA-MB-231 human mammary gland epithelial cells obtained from the American Type Culture Collection (Manassas, VA) were maintained in DMEM (H4) or DMEM/F12 (MDA-MB-231) supplemented with 10% (v/v) fetal bovine serum (FBS), 100 U/ml penicillin and 100 µg/ml streptomycin (Life Technologies). Transfections were carried out using Lipofectamine 2000 (Life Technologies) for 1 h at 37°C in the absence of FBS, and cells were analyzed 16, 24 or up to 36-h after transfection, for which we observed no notorious signs of loss in cell viability. SDS-PAGE, immunoblotting, and immunoprecipitation were performed as described. H4 cells after 16 h of transfection were washed twice with cold phosphate buffered saline supplemented with 0.1 mM CaCl2 and 1 mM MgCl2 (PBS-Ca/Mg), and incubated at 4°C for 1 h in lysis buffer (50 mM Tris-HCl pH 7.4, 150 mM NaCl, 1 mM EDTA, 1% (v/v) Triton X-100, and a cocktail of protease inhibitors). Soluble extracts were subjected to overnight immunoprecipitation at 4°C either with rabbit anti-HA-epitope antibody (kindly provided by R. Hegde, MRC Laboratory of Molecular Biology, Cambridge, UK) or with mouse antibody to the ε subunit of AP-4 (BD Biosciences) immobilized onto protein A- or a 1∶1 mix of protein A- and protein-G Sepharose beads (GE Healthcare), respectively. Soluble extracts and immunoprecipitates were processed by SDS-PAGE and blotted with horseradish peroxidase-conjugated mouse anti-HA antibody (Macs Miltenyi Biotec) or with mouse antibody to the ε subunit of AP-4.
Indirect immunofluorescence staining of fixed, permeabilized cells was performed as previously described, using sheep polyclonal antibody anti-TGN46 (Serotec), and mouse monoclonal antibody anti-EEA1 (BD Biosciences) or rabbit polyclonal antibody anti-EEA1 (Santa Cruz Biotechnology), followed by the secondary antibodies Alexa-647–conjugated donkey anti-mouse IgG, Alexa-594–conjugated donkey anti-rabbit IgG, or Alexa-594– or -647–conjugated donkey anti-sheep IgG (Life Technologies). Images were acquired either with an Olympus FluoView FV1000 scanning unit fitted on an inverted Olympus IX81 microscope and equipped with a PlanApo 60x oil immersion objective (NA 1.40; Olympus, Melville, NY), using similar settings as described previously, or with an AxioObserver.D1 microscope equipped with a PlanApo 63x oil immersion objective (NA 1.4), and an AxioCam MRm digital camera (Carl Zeiss). Quantitative analysis of colocalization was performed as we previously described, with minor modifications. Briefly, 12-bit images were acquired under identical settings avoiding signal saturation, and corrected for noise, cross-talk, and background signals on each set of images. The signals of TGN46 or EEA1 in each set of images were used in Image J (version 1.44o; Wayne Rasband, NIH, http://imagej.nih.gov) to define masks regarded as Golgi/TGN or early endosomes localization, respectively. The percentage of localization in each compartment was calculated for each cell (n = 10–15) subtracting either the Golgi/TGN or the early endosomes mask from the total integrated pixel intensity of APP-GFP, and the remainder of the signal was considered as in the ‘rest of the cell’.
We next examined the functional role of both the μ2- and the μ4-binding site of μ4 on the intracellular trafficking of APP. We have shown that the YKFFE-μ4 interaction is functional in vivo because its disruption by depletion of μ4 by RNAi produces a shift in the distribution of APP from endosomes to the TGN [18]. To evaluate now the function of each binding site for tyrosine-based signals, we tested a dominant-negative effect by overexpressing untagged or HA-epitope-tagged full-length wild-type μ4 or the variants untagged or HA-epitope-tagged μ4-D190A, μ4-D190S, μ4-F255A or μ4-R283D in H4 neuroglioma cells, as well as in MDA-MB-231 mammary gland epithelial cells, and examined by immunofluorescence the distribution of APP-GFP. […]

| Molecule | effect of mutation on binding to the APP YKFFE signal (Y2H) (cytosolic tail of APP) | effect of mutation on interaction of the APP tail with μ4 (Y2H) (cytosolic tail of APP) | further results |
| --- | --- | --- | --- |
| B1 | little or no effects | – | – |
| B2 | – | little or no effect | – |
| B3 | little or no effects | – | – |
| B4 | little or no effects | – | – |
| B5 | – | little or no effect | – |
| B6 | – | little or no effect | – |
| B7 | – | – | change in distribution of APP (APP-GFP): no apparent change in the distribution of APP |
| B8 | drastically reduced | – | – |
| B9 | completely abolished | – | – |
| B10 | completely abolished | – | – |
| B11 | – | little or no effect | – |
| B12 | little or no effects | – | – |
| B13 | – | little or no effect | – |
